In the supplement of paper PMC5949888:

Test system: Saccharomyces cerevisiae PS128 hsf1 delta, HSF1(1-493) fusion
Experiment: growth estimate (transactivation domain function in HSF1 fusion, heat-shock survival) (a.u. (slope of normalised read count over time)); higher = stronger growth at 37°C, i.e. more transactivation activity
Settings: library: design library
How it was run: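 The growth estimate is the slope, from a robust linear fit over time, of read counts scaled to sample totals and starting count. These counts came from Illumina MiSeq sequencing of PCR-amplified inserts, run as six barcoded replicates of one experiment. The inserts encoded designed transactivation-domain oligos fused to yeast HSF1 (amino acids 1–493) in an hsf1-deleted strain, replica-plated on –trp 5-FOA plates and incubated at 30°C or 37°C for 0, 2, 4, 6 and 8 days.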

Sequence | growth estimate
AADDIWEELLSEDL | 2.1
ADDDEFSLWDSML | 1.96
ADLYSILWSDVY | -0.203
AELSWIIELLEKDG | -0.248
AFDLDMLGDFDLDMLG | 1.88
AFDYDFLFGNDFA | 10.5
AFNDLLDLDFILSN | 0.948
AFPDTQDDFLKWWRSEEAQ | -0.0486
ALDESWDYIFETTE | 0.813
ALSSHGFSVDTSALLDLFSP | 0.065
AMDDVYNYLFDD | 2.28
AQNGEIAQLWDFN | -0.205
DADESWDYIFETTE | -0.164
DADLDMLGDFDLDMLG | 0.604
DALSWIIELLEKDG | < -0.25
DEASWIIELLEKDG | -0.123
DELAWIIELLEKDG | 0.883
DELGWIIELLEKDG | -0.244
DELKWIIELLEKDG | -0.0445
DELPWIIELLEKDG | -0.193
DELRWIIELLEKDG | 0.0232
DELSAIIELLEKDG | < -0.25
DELSGIIELLEKDG | -0.238
DELSKIIELLEKDG | < -0.25

Sequence | growth estimate
DELSPIIELLEKDG | -0.237
DELSRIIELLEKDG | < -0.25
DELSWAIELLEKDG | < -0.25
DELSWGIELLEKDG | < -0.25
DELSWIAELLEKDG | 0.851
DELSWIGELLEKDG | -0.125
DELSWIIALLEKDG | -0.104
DELSWIIEALEKDG | 0.0037
DELSWIIEGLEKDG | < -0.25
DELSWIIEKLEKDG | < -0.25
DELSWIIELLAKDG | -0.221
DELSWIIELLEADG | 1.64
DELSWIIELLEGDG | 2.77
DELSWIIELLEKAG | < -0.25
DELSWIIELLEKDA | 2.02
DELSWIIELLEKDG | 1.7
DELSWIIELLEKDK | 0.564
DELSWIIELLEKDP | 3.41
DELSWIIELLEKDR | 0.276
DELSWIIELLEKGG | 0.213
DELSWIIELLEKKG | < -0.25
DELSWIIELLEKPG | 0.0373
DELSWIIELLEKRG | < -0.25
DELSWIIELLEPDG | 7.58

Sequence | growth estimate
DELSWIIELLERDG | 1.05
DELSWIIELLGKDG | -0.173
DELSWIIELLKKDG | -0.239
DELSWIIELLPKDG | -0.225
DELSWIIELLRKDG | < -0.25
DELSWIIELPEKDG | -0.237
DELSWIIELREKDG | -0.239
DELSWIIERLEKDG | < -0.25
DELSWIIGLLEKDG | -0.0196
DELSWIIKLLEKDG | -0.233
DELSWIIRLLEKDG | < -0.25
DELSWIKELLEKDG | 0.278
DELSWIPELLEKDG | -0.091
DELSWIRELLEKDG | 1.03
DELSWKIELLEKDG | < -0.25
DELSWPIELLEKDG | 0.046
DELSWRIELLEKDG | -0.216
DEPSWIIELLEKDG | -0.161
DERSWIIELLEKDG | < -0.25
DFALDMLGDFDLDMLG | 3.21
DFDADMLGDFDLDMLG | 6.93
DFDGDMLGDFDLDMLG | 1.92
DFDKDMLGDFDLDMLG | 0.964
DFDLAMLGDFDLDMLG | 9.96

Sequence | growth estimate
DFDLDALGDFDLDMLG | 5.01
DFDLDGLGDFDLDMLG | 2.75
DFDLDKLGDFDLDMLG | 1.4
DFDLDMAGDFDLDMLG | 11.3
DFDLDMGGDFDLDMLG | 8.13
DFDLDMKGDFDLDMLG | 0.067
DFDLDMLADFDLDMLG | 0.343
DFDLDMLGAFDLDMLG | 5.97
DFDLDMLGDADLDMLG | 5.13
DFDLDMLGDFDADMLG | 21.1
DFDLDMLGDFDGDMLG | 4.69
DFDLDMLGDFDKDMLG | 0.54
DFDLDMLGDFDLAMLG | -0.0527
DFDLDMLGDFDLDALG | 0.195
DFDLDMLGDFDLDGLG | 2.79
DFDLDMLGDFDLDKLG | -0.158
DFDLDMLGDFDLDMAG | 30.2
DFDLDMLGDFDLDMGG | 16.5
DFDLDMLGDFDLDMKG | 3.28
DFDLDMLGDFDLDMLA | 1.83
DFDLDMLGDFDLDMLG | 7.72
DFDLDMLGDFDLDMLK | 1.65
DFDLDMLGDFDLDMLP | 22.2
DFDLDMLGDFDLDMLR | 6.97

Sequence | growth estimate
DFDLDMLGDFDLDMPG | 17.2
DFDLDMLGDFDLDMRG | 6.95
DFDLDMLGDFDLDPLG | 9.65
DFDLDMLGDFDLDRLG | 0.414
DFDLDMLGDFDLGMLG | 0.517
DFDLDMLGDFDLKMLG | -0.116
DFDLDMLGDFDLPMLG | 1.24
DFDLDMLGDFDLRMLG | 0.112
DFDLDMLGDFDPDMLG | 10.6
DFDLDMLGDFDRDMLG | 0.584
DFDLDMLGDFKLDMLG | 0.503
DFDLDMLGDFPLDMLG | 1.65
DFDLDMLGDFRLDMLG | 0.535
DFDLDMLGDGDLDMLG | -0.147
DFDLDMLGDKDLDMLG | -0.188
DFDLDMLGDPDLDMLG | 10.1
DFDLDMLGGFDLDMLG | 2.09
DFDLDMLGKFDLDMLG | 1.77
DFDLDMLGRFDLDMLG | 1.8
DFDLDMLKDFDLDMLG | 2.58
DFDLDMLPDFDLDMLG | 0.485
DFDLDMLRDFDLDMLG | 11.1
DFDLDMPGDFDLDMLG | 6.81
DFDLDMRGDFDLDMLG | 1.6

Sequence | growth estimate
DFDLDPLGDFDLDMLG | 2.12
DFDLDRLGDFDLDMLG | 4.07
DFDLGMLGDFDLDMLG | 12.4
DFDLKMLGDFDLDMLG | 3.04
DFDLPMLGDFDLDMLG | 5.28
DFDLRMLGDFDLDMLG | 6.25
DFDPDMLGDFDLDMLG | 7.23
DFDRDMLGDFDLDMLG | 1.31
DFGLDMLGDFDLDMLG | 2.44
DFKLDMLGDFDLDMLG | 5.13
DFPLDMLGDFDLDMLG | 3.12
DFRLDMLGDFDLDMLG | 10.1
DGDESWDYIFETTE | -0.219
DGDLDMLGDFDLDMLG | 0.418
DGLSWIIELLEKDG | -0.173
DKDESWDYIFETTE | -0.235
DKDLDMLGDFDLDMLG | -0.127
DKLSWIIELLEKDG | < -0.25
DLAESWDYIFETTE | 0.371
DLDASWDYIFETTE | 0.507
DLDEAWDYIFETTE | 1.45
DLDEGWDYIFETTE | 0.787
DLDEKWDYIFETTE | < -0.25
DLDEPWDYIFETTE | 1.58

Sequence | growth estimate
DLDESADYIFETTE | -0.127
DLDESGDYIFETTE | -0.129
DLDESRDYIFETTE | -0.153
DLDESWAYIFETTE | 0.283
DLDESWDAIFETTE | < -0.25
DLDESWDGIFETTE | 0.5
DLDESWDKIFETTE | -0.06
DLDESWDRIFETTE | < -0.25
DLDESWDYAFETTE | < -0.25
DLDESWDYIAETTE | -0.174
DLDESWDYIFATTE | 1.5
DLDESWDYIFEATE | 2.47
DLDESWDYIFEGTE | 1.27
DLDESWDYIFEKTE | -0.233
DLDESWDYIFEPTE | 1.97
DLDESWDYIFERTE | 0.415
DLDESWDYIFETAE | 1.08
DLDESWDYIFETGE | 1.44
DLDESWDYIFETPE | 0.951
DLDESWDYIFETRE | 0.311
DLDESWDYIFETTA | 0.992
DLDESWDYIFETTE | 1.92
DLDESWDYIFETTG | 2.74
DLDESWDYIFETTK | -0.0269

Sequence | growth estimate
DLDESWDYIFETTP | 3.58
DLDESWDYIFETTR | 1.15
DLDESWDYIFGTTE | 0.717
DLDESWDYIFKTTE | 0.154
DLDESWDYIFPTTE | 0.0438
DLDESWDYIFRTTE | 0.833
DLDESWDYIGETTE | -0.243
DLDESWDYIPETTE | < -0.25
DLDESWDYKFETTE | -0.178
DLDESWDYRFETTE | -0.247
DLDESWGYIFETTE | 0.0335
DLDESWKYIFETTE | -0.0397
DLDESWPYIFETTE | -0.161
DLDESWRYIFETTE | 0.0438
DLDGSWDYIFETTE | 0.41
DLDKSWDYIFETTE | -0.196
DLDPSWDYIFETTE | 0.39
DLDRSWDYIFETTE | -0.214
DLGESWDYIFETTE | 0.355
DLPESWDYIFETTE | -0.108
DLRESWDYIFETTE | -0.213
DPDESWDYIFETTE | 0.0829
DPDLDMLGDFDLDMLG | 4.23
DPLSWIIELLEKDG | -0.102
